Source: PMC12431651 (2025)

Molecular target: T1, MED25 ACID (Homo sapiens, UniProt Q71SY5)
T1 chain: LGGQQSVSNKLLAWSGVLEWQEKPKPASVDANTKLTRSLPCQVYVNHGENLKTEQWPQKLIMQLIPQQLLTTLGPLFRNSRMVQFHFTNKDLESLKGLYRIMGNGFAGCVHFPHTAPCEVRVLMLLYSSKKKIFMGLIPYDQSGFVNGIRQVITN
Assay: BLI

B1: NS1 (protein)
chain: MGSNSLSMIKVRLQNLFDNDEVALLKITCYTDKLIHLTNALAKAVIHTIKLNGIVFVHVITSSDICPNNNIVVKSNFTTMPVLQNGGYIWEMMELTHCSQPNGLLDDNCEIKFSKKLSDSTMTNYMNQLSELLGFDLNP
For B1, the Kd was 16 nM.
